Data as given in publication PMC7498053.

Target: RNA polymerase II (Pol II) immunopurified from HeLa cell nuclear extracts (human (endogenous in HeLa)) (UniProt P24928)
Test: negative stain electron microscopy; minimal PIC (DNA/TBP/TFIIA/TFIIB/Pol II/TFIIF) assembled sequentially on biotinylated promoter DNA, GST-ORF24-NTD added last; purified on streptavidin beads, eluted with EcoRI, cross-linked with 0.05% glutaraldehyde; 2D and 3D classification and difference maps, ~20 A

GST-ORF24-NTD (KSHV ORF24 residues 1-201 with an N-terminal GST tag) (domain or fragment)
percent of PIC particle images with extra density: 25%
